Source: patent publication US20130086703

Target: T1, human Keratin 17
T1 chain: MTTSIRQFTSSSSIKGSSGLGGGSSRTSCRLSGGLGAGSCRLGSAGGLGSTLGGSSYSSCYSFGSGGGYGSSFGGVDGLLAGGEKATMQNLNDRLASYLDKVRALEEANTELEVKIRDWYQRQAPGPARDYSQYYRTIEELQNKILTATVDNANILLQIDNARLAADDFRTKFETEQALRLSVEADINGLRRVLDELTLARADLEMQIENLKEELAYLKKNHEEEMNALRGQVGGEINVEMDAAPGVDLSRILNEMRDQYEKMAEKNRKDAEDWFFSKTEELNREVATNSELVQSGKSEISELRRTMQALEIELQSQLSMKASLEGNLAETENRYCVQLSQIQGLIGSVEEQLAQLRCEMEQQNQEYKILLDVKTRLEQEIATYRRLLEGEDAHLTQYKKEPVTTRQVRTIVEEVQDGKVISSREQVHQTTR

B1: RgpB (protein)
chain: YTPVEEKENGRMIVIVPKKYEEDIEDFVDWKNQRGLRTEVKVAEDIASPVTANAIQQFVKQEYEKEGNDLTYVLLVGDHKDIPAKITPGIKSDQVYGQIVGNDHYNEVFIGRFSCESKEDLKTQIDRTIHYERNITTEDKWLGQALCIASAEGGPSADNGESDIQHENIIANLLTQYGYTKIIKCYDPGVTPKNIIDAFNGGISLANYTGHGSETAWGTSHFGTTHVKQLTNSNQLPFIFDVACVNGDFLYNVPCFAEALMRAQKDGKPTGTVAIIASTINQSWASPMRGQDEMNEILCEKHPNNIKRTFGGVTMNGMFAMVEKYKKDGEKMLDTWTVFGDPSLLVRTLVPTKMQVTAPANISASAQTFEVACDYNGAIATLSDDGDMVGTAIVKDGKAIIKLNESIADETNLTLTVVGYNKVTVIKDVKVEG
- enzymatic degradation products detected by mass spectrometry (on spot profiling): peptides consisting of the amino acid sequences shown by SEQ ID NOs: 6-10 (peptides 8-12) were newly identified as RgpB degradation products of human Keratin 17
